Key:
[1] = target: hIGF-1R-ECD-avi-his (human IGF-1R extracellular region) (human) (UniProt P08069); test: SPR (Biacore T200), antigen captured by anti-His antibody on CM5 chip, antibody as analyte
[2] = target: human IGF-1R on human non-small cell lung cancer cells (A549) (human) (UniProt P08069); test: cell-based or functional assay
human IGF-1R on human non-small cell lung cancer cells (A549) (human), sequence (P08069 31-1367): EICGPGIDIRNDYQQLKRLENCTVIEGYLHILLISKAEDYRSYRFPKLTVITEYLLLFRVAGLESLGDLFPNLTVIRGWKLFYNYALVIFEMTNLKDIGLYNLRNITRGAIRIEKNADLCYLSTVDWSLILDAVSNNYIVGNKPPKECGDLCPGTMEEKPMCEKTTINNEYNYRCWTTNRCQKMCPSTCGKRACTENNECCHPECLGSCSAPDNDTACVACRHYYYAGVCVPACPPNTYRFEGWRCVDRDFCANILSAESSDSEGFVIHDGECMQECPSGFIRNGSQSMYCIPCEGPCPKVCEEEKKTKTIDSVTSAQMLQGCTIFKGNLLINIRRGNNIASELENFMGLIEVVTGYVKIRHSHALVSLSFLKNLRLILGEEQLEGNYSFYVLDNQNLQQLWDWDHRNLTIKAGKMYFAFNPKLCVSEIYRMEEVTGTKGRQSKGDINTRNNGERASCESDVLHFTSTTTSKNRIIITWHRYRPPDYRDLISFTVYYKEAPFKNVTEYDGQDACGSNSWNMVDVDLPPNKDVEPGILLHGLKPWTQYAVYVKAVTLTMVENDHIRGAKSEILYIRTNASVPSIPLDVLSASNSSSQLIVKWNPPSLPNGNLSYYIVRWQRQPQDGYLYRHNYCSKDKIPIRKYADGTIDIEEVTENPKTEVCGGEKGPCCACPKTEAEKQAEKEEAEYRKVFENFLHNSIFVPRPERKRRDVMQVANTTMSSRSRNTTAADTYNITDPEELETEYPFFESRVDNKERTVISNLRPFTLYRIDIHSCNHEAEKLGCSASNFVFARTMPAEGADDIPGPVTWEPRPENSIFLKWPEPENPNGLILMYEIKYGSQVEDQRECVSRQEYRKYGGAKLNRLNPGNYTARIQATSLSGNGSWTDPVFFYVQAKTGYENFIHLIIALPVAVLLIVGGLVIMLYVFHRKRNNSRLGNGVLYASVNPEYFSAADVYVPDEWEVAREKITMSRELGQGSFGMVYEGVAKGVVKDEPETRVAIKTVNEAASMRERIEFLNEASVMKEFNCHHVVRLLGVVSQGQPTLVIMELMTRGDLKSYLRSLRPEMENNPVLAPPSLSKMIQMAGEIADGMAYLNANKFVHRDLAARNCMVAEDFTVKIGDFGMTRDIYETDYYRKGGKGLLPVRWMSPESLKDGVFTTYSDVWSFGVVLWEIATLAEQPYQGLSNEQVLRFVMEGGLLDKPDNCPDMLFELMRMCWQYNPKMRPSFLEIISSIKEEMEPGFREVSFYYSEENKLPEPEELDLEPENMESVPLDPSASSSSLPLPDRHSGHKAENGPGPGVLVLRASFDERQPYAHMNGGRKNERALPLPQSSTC

hIGF-1R-ECD-avi-his (human IGF-1R extracellular region) (human), sequence (P08069 other isoform, or with tags, fused parts or gaps limits assumed): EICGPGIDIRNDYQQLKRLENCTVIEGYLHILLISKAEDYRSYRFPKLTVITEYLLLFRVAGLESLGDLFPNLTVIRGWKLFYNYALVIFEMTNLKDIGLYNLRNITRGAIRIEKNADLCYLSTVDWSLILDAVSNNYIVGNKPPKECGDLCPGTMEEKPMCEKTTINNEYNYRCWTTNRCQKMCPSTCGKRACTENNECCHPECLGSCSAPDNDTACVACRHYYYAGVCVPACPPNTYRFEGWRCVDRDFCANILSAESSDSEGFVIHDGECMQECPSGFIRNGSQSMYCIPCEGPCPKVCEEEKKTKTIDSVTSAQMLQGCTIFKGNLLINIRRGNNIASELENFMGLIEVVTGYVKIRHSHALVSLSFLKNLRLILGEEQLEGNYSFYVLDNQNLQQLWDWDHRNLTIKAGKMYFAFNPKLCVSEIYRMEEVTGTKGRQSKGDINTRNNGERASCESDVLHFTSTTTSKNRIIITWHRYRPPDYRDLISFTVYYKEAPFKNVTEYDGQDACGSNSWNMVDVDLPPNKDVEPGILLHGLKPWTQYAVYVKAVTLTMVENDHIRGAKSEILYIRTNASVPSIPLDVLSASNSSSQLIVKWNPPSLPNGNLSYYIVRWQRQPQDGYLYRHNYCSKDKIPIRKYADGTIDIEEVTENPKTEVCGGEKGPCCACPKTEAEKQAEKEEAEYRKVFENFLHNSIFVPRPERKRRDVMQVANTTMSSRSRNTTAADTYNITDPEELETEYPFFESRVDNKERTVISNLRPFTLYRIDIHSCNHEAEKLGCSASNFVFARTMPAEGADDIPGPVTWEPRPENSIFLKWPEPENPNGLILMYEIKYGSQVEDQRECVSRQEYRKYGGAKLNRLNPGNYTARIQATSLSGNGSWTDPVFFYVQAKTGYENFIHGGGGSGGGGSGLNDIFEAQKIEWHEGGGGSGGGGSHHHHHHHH

Kd [1] [nM] | koff [1] [s⁻¹] | kon [1] [M⁻¹ s⁻¹] | IC50 (nM), inhibition of IGF1-induced pAKT signaling in A549 cells [2] [nM] | Substance
0.267 | 0.00109 | 4.08e+06 | – | Tepezza (Horizon, US2022356257) (antibody)
0.0175 | 1.47e-05 | 839000 | 0.716 | VRDN-001 (Viridian, WO2023019171) (antibody)

Reference: patent publication EP4775595A1
